Data from the supplement of paper PMC9170038.

Tested on: MS2 coat protein
Assay: apparent KD of MS2 coat protein; designed switch direction (-1 OFF switch, 1 ON switch): -1; higher = weaker reporter binding
Summary of the method: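 Three titration conditions were used: no input, 200 uM small-molecule ligand, and an oligonucleotide input. In each, SNAP-549-labelled MS2 coat protein was raised from 0.7 or 1.5 nM, doubling, to 3 µM over designed RNA switches transcribed on Illumina chips by stalled E. coli RNA polymerase. Curve fits of normalised cluster fluorescence gave values whose per-design median over clusters is the apparent KD.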

[1] = input ligand: microRNA oligo, concentration not stated
[2] = Eterna round: R95, input ligand: FMN 200 uM
[3] = Eterna round: R95, input ligand: microRNA oligo, concentration not stated
[4] = Eterna round: R95, input ligand: none

| Sequence | apparent KD of MS2 coat protein (input ligand: FMN 200 uM) | apparent KD of MS2 coat protein [1] | apparent KD of MS2 coat protein (input ligand: none) | apparent KD of MS2 coat protein [2] | apparent KD of MS2 coat protein [3] | apparent KD of MS2 coat protein [4] |
| --- | --- | --- | --- | --- | --- | --- |
| AGGUGCUUCAGGAGACAUGAGGAUCACCCAUGUUGAGUUAGCGAGGAUAUCGGUAACCCAUGUGAUGAGAAGGCGCAAACCAAU [Ex NG3 #46] (Eterna round: R96, puzzle: Exclusion NG 3) | 92.9 nM | 52.4 nM | 74.1 nM | – | – | – |
| AGGUGCUUCUGGAGACAUGAGGAUCACCCAUGUUGAGUUAGCGAGGAUAUCGGUAACGCAUGUGAUGAGAAGGCGCAAACCAAU [Ex NG3 #47] (Eterna round: R96, puzzle: Exclusion NG 3) | 79.7 nM | 30.7 nM | 47 nM | – | – | – |
| AGGUGUAGAGGAUAUACAGUGUAUUACAUGAGGAUCACCCAUGUCCUUCAAUGGGUGUCAGUAGAAGGCUACACCA [Omei Ex5 C2] (Eterna round: R97, puzzle: Exclusion 5) | 255 nM | – | 1660 nM | – | – | – |
| AGUAACCGUCACGAAAGUGAUGGUUACACAAGUGUAAUAACAUGAGGAUCACCCAUGUCCUCAUUUGCUCGUCUUAU [Sensor 3 - 36] (puzzle: Sensor v3, turn-off variant 2) | – | – | – | 41.9 nM | 121 nM | 49.4 nM |
| AGUAACCGUCACGAAAGUGAUGGUUACGCAAGCAAUUGUACAUGAGGAUCACCCAUGUCCUCAUUUGCUCGUCUUAU [Sensor 3 - 42] (puzzle: Sensor v3, turn-off variant 2) | – | – | – | 313 nM | 378 nM | 357 nM |
| AGUAACCGUCACGAAAGUGAUGGUUACGCAAGUAAAUGUACAUGAGGAUCACCCAUGUCCUCAUUUGCUCGUCUUAU [Sensor 3 - 44] (puzzle: Sensor v3, turn-off variant 2) | – | – | – | 188 nM | 330 nM | – |
| AGUAACUAUCACGAAAGUGAUAGUUACAACAAGUGAUAAACAUGAGGAUCACCCAUGUCCUCAUUUGCUCGUUUUAU [Sensor 3 - 15] (puzzle: Sensor v3, turn-off variant 2) | – | – | – | 328 nM | 646 nM | 323 nM |
| AGUAACUCAAGAGGAUAUCACAUGAGGAUCACCCAUGUAUAGCGCGCUACGCUAGUCCUCGUAUUUGAGAAGGUUUGAUAAAUG [Quve] (Eterna round: R96, puzzle: Exclusion NG 2) | 10.4 nM | 11.4 nM | 14.3 nM | – | – | – |
| AGUAAGCUAGGAUAUGCUUUGGGAAAGCAAUCCUUCGAUAAACUUGAGGAUCACCCAAGUAGAAGGAGCUUACU [jl-ex2.4.50 ViennaUCT mod] (Eterna round: R97, puzzle: Exclusion 2) | 99.8 nM | – | 25.4 nM | – | – | – |
| AGUACUAACACGAAAGUGUUAGUACAAUAAGCUUGUGAUACAUGAGGAUCACCCAUGUCCUCAUAAGCUCGUCUUAU [salish99_TOv2_r3_045] (Eterna round: R96, puzzle: Sensor v3, turn-off variant 2) | 23.7 nM | 714 nM | 24.2 nM | – | – | – |
| AGUACUAACACGAAAGUGUUAGUACAAUAAGCUUGUGAUACAUGAGGAUCACCCAUGUCCUCAUAAGCUCGUCUUAU [salish99_TOv2_r3_045] (puzzle: Sensor v3, turn-off variant 2) | – | – | – | 24.7 nM | 652 nM | 21.9 nM |
| AGUACUAACACGAAAGUGUUAGUACUAUAAGCUUGUGUUACAUGAGGAUCACCCAUGUCCUCAUAAGCUCGUCUUAA [Mat - Sensor v3 - Turn-off var 2 - D63] (puzzle: Sensor v3, turn-off variant 2) | – | – | – | 35.2 nM | 437 nM | 41 nM |
| AGUACUAACACGAGAGUGUUAGUACUAUAAGCUUGUGAAACAUGAGGAUCACCCAUGUCCUCAUAAGCUCGUCUUAU [Mat - Sensor v3 - Turn-off var 2 - D103] (Eterna round: R96, puzzle: Sensor v3, turn-off variant 2) | 13.8 nM | 452 nM | 16.8 nM | – | – | – |
| AGUACUAACACGAGAGUGUUAGUACUAUAAGCUUGUGAAACAUGAGGAUCACCCAUGUCCUCAUAAGCUCGUCUUAU [Mat - Sensor v3 - Turn-off var 2 - D103] (puzzle: Sensor v3, turn-off variant 2) | – | – | – | 15.3 nM | 682 nM | 12.5 nM |
| AGUACUAACAGCUGACUGUUAGUACUGUAGGUUUGUGUUACAUGAGGAUCACCCAUGUCCUCAUAGGCUCGUCUUGU [Mat - Sensor v3 - Turn-off var 2 - D97] (puzzle: Sensor v3, turn-off variant 2) | – | – | – | 291 nM | 100 nM | 284 nM |
| AGUACUAUCACGAAAGUGAUAGUACAAAUAGCAAGUGAAACAUGAGGAUCACCCAUGUCCUCAUUUGCUCGUCUUAA [Mat - Sensor v2 -ver2- JL mod - D66] (Eterna round: R96, puzzle: Sensor v2, turn-off variant 2) | 12.6 nM | 320 nM | 14.3 nM | – | – | – |
| AGUACUAUGCGUGCUGACAUGCGUAGUGCAGCAGGUGUAACAUGAGGAUCACCCAUGUCCUCAUUUGCUCGUCUUAU [Mat - Sensor v3 - Turn-off var 2 - D12] (puzzle: Sensor v3, turn-off variant 2) | – | – | – | 116 nM | 201 nM | 127 nM |
| AGUACUUACUCGAUAGUGUUAGUACAAUAAGCUUGUGAAACAUGAGGAUCACCCAUGUCCUCAUAAGCUCGUCUUAU [salish99_TOv2_r3_1005] (puzzle: Sensor v3, turn-off variant 2) | – | – | – | 17.6 nM | 627 nM | 15.8 nM |
| AGUAGAUCUACGCUUGCGUGGAUCUGCUAUGCAGGUGUCACAUGAGGAUCACCCAUGUCCUCAUUUGUUCGUCUUAU [JL turnoff v2 99.16] (puzzle: Sensor v3, turn-off variant 2) | – | – | – | 18.7 nM | 33.8 nM | 15.5 nM |
| AGUAGGAGAGGAUAUACGAAGUCAAAAGACUUCAAUACUCAACAUGAGGAUCACCCAUGUAGAAGGCUCCUACA [Omei Ex2 BD A4] (Eterna round: R97, puzzle: Exclusion 2) | 22.9 nM | – | 19.4 nM | – | – | – |
| AGUAGGUCUACCUUGGUGGAUCUGCAUUUAAGCAGGUGUACAUGAGGAUCACCCAUGUCCUCAUUUGCUCGUCUUAU [JL turnoff v2 99.30] (puzzle: Sensor v3, turn-off variant 2) | – | – | – | 453 nM | 342 nM | 492 nM |
| AGUCCAGAUGUUAGGAUAUGCAACUAGCCAUUGUAGCAGAAGGAACAUGAGGAUCACCCAUGUACAAAGACCCG [Edgeraer] (puzzle: Brourd's mod of Exclusion 4) | – | – | – | 47.4 nM | 13.4 nM | 11.3 nM |
| AGUCGAAAGAACCACAUGGACAUGAGGAUCACCCAUGUGCAAGCCUUUUUCUCGUCACUAUCGUCAAAAGACGAUAG [Omei Mir Offv1 A5] (Eterna round: R97, puzzle: Sensor, turn-off variant 1) | 168 nM | – | 227 nM | – | – | – |
| AGUCGUAGACAGGAUAUGCGGCUAAUAAAUAAAGCAGAAGGGUCUACUUGAGGAUCACCCAAGUGGGCGGUCUG [jl-ex6-4.22 ViennaUCT mod] (Eterna round: R97, puzzle: Exclusion 6) | 64.9 nM | – | 16.9 nM | – | – | – |
| AGUGAACAUGAGGAUCACCCAUGUUAGGAUAUGUAUAAUCGACGAGCCUUUUCGUCGGGCAGAAGGGAUGGUGA [Eternabot (L2) Solution 95] (Eterna round: R97, puzzle: Exclusion 1) | 44.7 nM | – | 41.6 nM | – | – | – |
| AGUGCGUAUGUGAGGAUAUGCUGGUCCUUGGAUCGGCAGAAGGCACAUGAGGAUCACCCAUGUGGUGUCGUACC [salish99_Bmod_ex4_076] (puzzle: Brourd's mod of Exclusion 4) | – | – | – | – | 136 nM | – |
| AGUGUCUUAGGAUAUACAUGAGGAUCACCCAUGUUAACAUUCCUUCGCGGUAUCGCAUGUAGAAGGAGGAUAUG [Eternabot (L1) Solution 68] (Eterna round: R97, puzzle: Exclusion 3) | 33.1 nM | – | 26.8 nM | – | – | – |
| AGUGUGAGGCAGGAUAUGCUAUAUGUAAGUAAUGCAGAAGGGUCUACAUGAGGAUCACCCAUGUGUGCGGUUGA [Ex6 #9] (Eterna round: R97, puzzle: Exclusion 6) | 797 nM | – | 116 nM | – | – | – |
